In the supplement of paper PMC10567573:

B1: INTS3 (parent)
chain: DLNSKGKKREFRFHPIKETVVEEP

Variants of: B1
Experiment: protein stability index of a GFP-peptide fusion (GPS, HEK-293T) (PSI 1-6); higher = more stable
Conditions: c terminus: a fixed tail appended
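Also: lentivirally expressed fusions sorted by FACS into six bins by GFP to DsRed ratio, PSI derived from sequencing read proportions per bin multiplied by bin number.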

Compared with FLNSKGKKREFRFHPIKETVVEEP [D1F], ILNSKGKKREFRFHPIKETVVEEP [D1I] is lower in protein stability index: 2.24 for the first, 1.28 for the second.

First: PLNSKGKKREFRFHPIKETVVEEP [D1P]
Second: KLNSKGKKREFRFHPIKETVVEEP [D1K]
The protein stability index of the first is lower: 1.48 for the first, 2.23 for the second.

Compared with RLNSKGKKREFRFHPIKETVVEEP [D1R], SLNSKGKKREFRFHPIKETVVEEP [D1S] is lower in protein stability index: 1.97 for the first, 1.55 for the second.

First: DLNSKGLKREFRFHPIKETVVEEP [K7L]
Second: DLNSKGHKREFRFHPIKETVVEEP [K7H]
The protein stability index of the first is lower: 1.62 for the first, 2.35 for the second.

First: DLNSKGWKREFRFHPIKETVVEEP [K7W]
Second: DLNSKGVKREFRFHPIKETVVEEP [K7V]
The protein stability index of the first is higher: 2.58 for the first, 2.54 for the second.

First: DLNSKGTKREFRFHPIKETVVEEP [K7T]
Second: DLNSKGCKREFRFHPIKETVVEEP [K7C]
The protein stability index of the first is higher: 2.79 for the first, 1.86 for the second.

Compared with DLNSKGIKREFRFHPIKETVVEEP [K7I], DLNSKGNKREFRFHPIKETVVEEP [K7N] is higher in protein stability index: 2.15 for the first, 2.23 for the second.

Compared with DLNSKGSKREFRFHPIKETVVEEP [K7S], DLNSKGPKREFRFHPIKETVVEEP [K7P] is lower in protein stability index: 2.48 for the first, 1.94 for the second.

First: DLNSKGMKREFRFHPIKETVVEEP [K7M]
Second: DLNSKGYKREFRFHPIKETVVEEP [K7Y]
The protein stability index of the first is higher: 2.25 for the first, 1.94 for the second.

Compared with DLNSKGFKREFRFHPIKETVVEEP [K7F], DLNSKGGKREFRFHPIKETVVEEP [K7G] is higher in protein stability index: 1.72 for the first, 2.28 for the second.

Compared with DLNSKGRKREFRFHPIKETVVEEP [K7R], DLNSKGEKREFRFHPIKETVVEEP [K7E] is higher in protein stability index: 2.37 for the first, 3.37 for the second.

Going from DLNSKGQKREFRFHPIKETVVEEP [K7Q] to DLNSKGAKREFRFHPIKETVVEEP [K7A], the protein stability index rises from 2.54 to 2.57.

Going from DLNSKGDKREFRFHPIKETVVEEP [K7D] to DLNSKGKHREFRFHPIKETVVEEP [K8H], the protein stability index falls from 3.35 to 2.

First: DLNSKGKIREFRFHPIKETVVEEP [K8I]
Second: DLNSKGKDREFRFHPIKETVVEEP [K8D]
The protein stability index of the first is lower: 2.24 for the first, 3.35 for the second.

Compared with DLNSKGKAREFRFHPIKETVVEEP [K8A], DLNSKGKGREFRFHPIKETVVEEP [K8G] is higher in protein stability index: 1.74 for the first, 2.08 for the second.

First: DLNSKGKEREFRFHPIKETVVEEP [K8E]
Second: DLNSKGKPREFRFHPIKETVVEEP [K8P]
The protein stability index of the first is higher: 2.93 for the first, 1.94 for the second.

Going from DLNSKGKFREFRFHPIKETVVEEP [K8F] to DLNSKGKMREFRFHPIKETVVEEP [K8M], the protein stability index falls from 2.09 to 1.93.

Going from DLNSKGKLREFRFHPIKETVVEEP [K8L] to DLNSKGKCREFRFHPIKETVVEEP [K8C], the protein stability index rises from 1.96 to 1.98.

Going from DLNSKGKNREFRFHPIKETVVEEP [K8N] to DLMSKGKKREFRFHPIKETVVEEP [N3M], the protein stability index falls from 2.54 to 1.77.

First: DLDSKGKKREFRFHPIKETVVEEP [N3D]
Second: DLVSKGKKREFRFHPIKETVVEEP [N3V]
The protein stability index of the first is higher: 2.79 for the first, 1.53 for the second.

Compared with DLISKGKKREFRFHPIKETVVEEP [N3I], DLASKGKKREFRFHPIKETVVEEP [N3A] is lower in protein stability index: 1.88 for the first, 1.83 for the second.

Compared with DLKSKGKKREFRFHPIKETVVEEP [N3K], DLHSKGKKREFRFHPIKETVVEEP [N3H] is lower in protein stability index: 2.19 for the first, 1.88 for the second.

Going from DLQSKGKKREFRFHPIKETVVEEP [N3Q] to DLRSKGKKREFRFHPIKETVVEEP [N3R], the protein stability index falls from 2.33 to 2.08.

Going from DLSSKGKKREFRFHPIKETVVEEP [N3S] to DLFSKGKKREFRFHPIKETVVEEP [N3F], the protein stability index falls from 1.76 to 1.51.

Going from DLYSKGKKREFRFHPIKETVVEEP [N3Y] to DLLSKGKKREFRFHPIKETVVEEP [N3L], the protein stability index falls from 2.54 to 2.16.

First: DLESKGKKREFRFHPIKETVVEEP [N3E]
Second: DLPSKGKKREFRFHPIKETVVEEP [N3P]
The protein stability index of the first is higher: 2.9 for the first, 1.87 for the second.

Compared with DLCSKGKKREFRFHPIKETVVEEP [N3C], DLGSKGKKREFRFHPIKETVVEEP [N3G] is higher in protein stability index: 1.78 for the first, 2.2 for the second.

Compared with DLTSKGKKREFRFHPIKETVVEEP [N3T], DLWSKGKKREFRFHPIKETVVEEP [N3W] is lower in protein stability index: 2.4 for the first, 1.8 for the second.

First: DLNQKGKKREFRFHPIKETVVEEP [S4Q]
Second: DLNRKGKKREFRFHPIKETVVEEP [S4R]
The protein stability index of the first is lower: 1.88 for the first, 2.23 for the second.

First: DLNWKGKKREFRFHPIKETVVEEP [S4W]
Second: DLNGKGKKREFRFHPIKETVVEEP [S4G]
The protein stability index of the first is lower: 1.92 for the first, 2.13 for the second.

Compared with DLNNKGKKREFRFHPIKETVVEEP [S4N], DLNYKGKKREFRFHPIKETVVEEP [S4Y] is higher in protein stability index: 1.99 for the first, 2.24 for the second.

First: DLNKKGKKREFRFHPIKETVVEEP [S4K]
Second: DLNDKGKKREFRFHPIKETVVEEP [S4D]
The protein stability index of the first is lower: 2.08 for the first, 2.6 for the second.

Going from DLNPKGKKREFRFHPIKETVVEEP [S4P] to DLNEKGKKREFRFHPIKETVVEEP [S4E], the protein stability index rises from 2.41 to 3.09.

Compared with DLNTKGKKREFRFHPIKETVVEEP [S4T], DLNCKGKKREFRFHPIKETVVEEP [S4C] is lower in protein stability index: 2.49 for the first, 2.27 for the second.

Going from DLNAKGKKREFRFHPIKETVVEEP [S4A] to DLNLKGKKREFRFHPIKETVVEEP [S4L], the protein stability index falls from 2.42 to 2.

First: DLNMKGKKREFRFHPIKETVVEEP [S4M]
Second: DLNHKGKKREFRFHPIKETVVEEP [S4H]
The protein stability index of the first is lower: 2.03 for the first, 2.24 for the second.

Going from DLNIKGKKREFRFHPIKETVVEEP [S4I] to DLNVKGKKREFRFHPIKETVVEEP [S4V], the protein stability index rises from 2.12 to 2.71.

Going from DLNFKGKKREFRFHPIKETVVEEP [S4F] to DPNSKGKKREFRFHPIKETVVEEP [L2P], the protein stability index falls from 2.77 to 2.74.

First: DHNSKGKKREFRFHPIKETVVEEP [L2H]
Second: DMNSKGKKREFRFHPIKETVVEEP [L2M]
The protein stability index of the first is higher: 2 for the first, 1.81 for the second.

Compared with DGNSKGKKREFRFHPIKETVVEEP [L2G], DNNSKGKKREFRFHPIKETVVEEP [L2N] is higher in protein stability index: 2.8 for the first, 2.96 for the second.

Compared with DVNSKGKKREFRFHPIKETVVEEP [L2V], DWNSKGKKREFRFHPIKETVVEEP [L2W] is lower in protein stability index: 3.25 for the first, 1.9 for the second.

First: DINSKGKKREFRFHPIKETVVEEP [L2I]
Second: DFNSKGKKREFRFHPIKETVVEEP [L2F]
The protein stability index of the first is higher: 2.36 for the first, 2.2 for the second.

Compared with DQNSKGKKREFRFHPIKETVVEEP [L2Q], DTNSKGKKREFRFHPIKETVVEEP [L2T] is lower in protein stability index: 2.69 for the first, 2.28 for the second.

First: DDNSKGKKREFRFHPIKETVVEEP [L2D]
Second: DYNSKGKKREFRFHPIKETVVEEP [L2Y]
The protein stability index of the first is higher: 2.82 for the first, 1.89 for the second.

Going from DKNSKGKKREFRFHPIKETVVEEP [L2K] to DENSKGKKREFRFHPIKETVVEEP [L2E], the protein stability index rises from 2.09 to 2.26.

First: DCNSKGKKREFRFHPIKETVVEEP [L2C]
Second: DANSKGKKREFRFHPIKETVVEEP [L2A]
The protein stability index of the first is lower: 2.22 for the first, 2.73 for the second.

Going from DSNSKGKKREFRFHPIKETVVEEP [L2S] to DRNSKGKKREFRFHPIKETVVEEP [L2R], the protein stability index falls from 2.89 to 2.34.
